First the molecules themselves.
T1: GST-Rpn10 vWA domain (residues 1-189) (S. cerevisiae, UniProt P38886 1-189)
T1 construct: Rpn10, S. cerevisiae, N-terminal vWA (Von Willebrand factor type A) domain, residues 1-189 (made from pGST-Rpn10 by deleting residues 190-268); also called wild-type vWA; source: expressed and purified as GST-fusion protein, size exclusion chromatography before each experiment
T1 sequence (looked up): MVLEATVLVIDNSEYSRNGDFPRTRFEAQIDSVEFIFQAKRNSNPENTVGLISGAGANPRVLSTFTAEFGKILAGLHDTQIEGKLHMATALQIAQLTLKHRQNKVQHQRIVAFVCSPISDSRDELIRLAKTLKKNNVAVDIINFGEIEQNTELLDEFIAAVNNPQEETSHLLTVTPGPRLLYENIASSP

T2: GST-Rpn10 (full-length Rpn10) (S. cerevisiae, UniProt P38886 1-268)
T2 construct: Rpn10, proteasomal ubiquitin receptor, S. cerevisiae; open reading frame encodes residues 1-268; Plasmid pGST-Rpn10; also called Rpn10 wt; wild-type full-length Rpn10; source: expressed and purified as GST-fusion protein, size exclusion chromatography before each experiment
T2 sequence (looked up): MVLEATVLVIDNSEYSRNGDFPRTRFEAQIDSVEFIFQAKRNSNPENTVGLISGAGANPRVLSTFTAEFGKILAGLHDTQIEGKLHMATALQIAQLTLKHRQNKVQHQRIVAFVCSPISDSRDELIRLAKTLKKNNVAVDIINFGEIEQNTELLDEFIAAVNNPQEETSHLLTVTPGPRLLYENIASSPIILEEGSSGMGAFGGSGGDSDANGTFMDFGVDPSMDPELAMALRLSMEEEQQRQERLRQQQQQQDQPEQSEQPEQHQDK

B1: free mono-ubiquitin (wild type) (natural protein)
chain: not shown
notes: ubiquitin (Ub), the mature 76-residue protein; also called Ub wt; source: purified, size exclusion chromatography before each experiment
B2: GST-Rpn10 UIM (domain or fragment, S. cerevisiae, UniProt P38886 223-242, looked up)
chain: SMDPELAMALRLSMEEEQQR
notes: also called its UIM alone; source: expressed and purified as GST-fusion protein, size exclusion chromatography before each experiment

What all share (test): SPR; α-GST antibody immobilized on a CM5 chip captures GST-Rpn10 derivatives (ligands); free mono-Ub variants as analytes; 10 mM HEPES pH 7.0, 150 mM NaCl, 0.005% polysorbate-20, 25 °C; triplicate; single-site-binding model
Holding throughout (details): both partners purified
(SPR reads the build-up and loss of mass on a sensor chip optically.)

For assay [1], the target named is T1, GST-Rpn10 vWA domain (residues 1-189).
Assay [2] addresses T2, GST-Rpn10 (full-length Rpn10).
The target in assay [3] is B1.

In the case of B1, the values for the Kd in assay [1] and in assay [2] were roughly 330 µM and roughly 270 µM, respectively.
Regarding B2, the Kd in assay [3] is roughly 180 µM.

As usually defined, the Kd is a measure of binding affinity in units of concentration. The low end stands for a tighter complex, the high end for a looser complex.
